Measured values: article PMC2850911

Assays:
[1] = biological target: Entamoeba histolytica Phosphoserine aminotransferase (Entamoeba histolytica); test: cross-linking; glutaraldehyde cross-linking of EhPSAT incubated at pH 9, 8, 7 and 6, analysed on 10% SDS-PAGE
[2] = biological target: Entamoeba histolytica Phosphoserine aminotransferase (Entamoeba histolytica); test: SEC; Superdex 200 10/300 GL column, EhPSAT at pH 6, 7, 8 and 9; calibrated with ferritin, aldolase, conalbumin and ovalbumin; also run with 200 mM NaCl or NaF

- stoichiometry N [1]: 2
- stoichiometry N [2]: 2
Substance: Entamoeba histolytica Phosphoserine aminotransferase (enzyme)
